Target: ΔN−3 gp17.1 (bacteriophage SPP1) (UniProt O48449)
Experiment: cryo-EM structure; helical reconstruction of polymerized ΔN−3 gp17.1 tubes, 20 mM Tris-HCl pH 7.4 in place of phosphate; the most straight tubes selected; C6, rise 38.46 Å, twist 21.89°; atomic model by hybrid calculation (ISD) with solid-state NMR restraints from gp17.1 tubes

## ΔN−3 gp17.1 (from UniProt O48449 1-264) (natural protein)
  stoichiometry N: 6

— paper PMC7666168
